System: K4 kissing-loop RNA reporter
Test: apparent KD of K4 kissing-loop reporter; higher = weaker reporter binding
Settings: Eterna round: R107
Protocol: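 RNA-MaP round R107: designed RNA switches with theophylline, tryptophan, arginine or FMN aptamers are transcribed on-chip within common flanks. They are titrated with a labelled K4 kissing-loop RNA reporter in RNA-MaP buffer (100 mM Tris pH 7.5, 80 mM KCl, 4 mM MgCl2), without ligand or with the indicated ligand. Median apparent KD per design.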

[1] = input ligand: theophylline 20 uM
[2] = input ligand: tryptophan 2.4 mM
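Note: bound reporter read as fluorescence of individual clusters on recovered sequencing chips by microscopy, with normalized cluster intensities fitted with a binding model.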

Sequence | apparent KD of K4 kissing-loop reporter (input ligand: FMN 200 uM) | apparent KD of K4 kissing-loop reporter (input ligand: arginine 13.2 mM) | apparent KD of K4 kissing-loop reporter (input ligand: none) | apparent KD of K4 kissing-loop reporter [1] | apparent KD of K4 kissing-loop reporter [2]
UUAAUAAUUCAAGGAUAUGUUUUCUAUUUCGAGUGAUGUUCGGAAUUAAUAAAUUUAAAAGAUUAUACAGAAGGUGAUGGAUAGU [Cynwulf-mod#4] | 114 nM | 117 nM | 109 nM | 129 nM | 90.3 nM
UUUGGUUUCUCGGCCGCCACUCGUUGGUUAUGGGCUUCAGGGAUAUAGUGAUGUUAUGUAUAGAAGAGGACCGGGAGAAGGAAGG [ExTryptoB.Dq] | 195 nM | 245 nM | 288 nM | 186 nM | 269 nM
AUGUUGAGCGGAAGGAGCGGCUGAGCCAGUGAUGUUGGUUAAUCCAAGUGAUGUUGGAAAAGCCAGGUAGGUCGCCGUUUUACGU [whbob_SS_Arginine_B_2t145] | 1010 nM | 597 nM | 1190 nM | 807 nM | 887 nM
UUCGAUCAGUGAUGUUGAUCAAUAGUCGAAGGAGCGCUAUAGAUAGCAGGUAGGUCGCGGCUACAGGGUGUUAAGACACCCAGAA [#13 K4 Arginine A Same State] | 534 nM | 450 nM | 453 nM | 477 nM | 488 nM
CACCAUGAAUUCUCUAGGAGUGAUGUUUUUCGAGGACCGGUACGGCCGCCACUCGGACCAGGAACGUGGGAGCGGCGAAAAGACU [ttmullin] | 656 nM | 438 nM | 688 nM | 494 nM | 373 nM
UAAGAUAUAAGGGAUACCAGCCAUAAGGAAAGUGUGAUGAGUGAUGUUCUGACAAGCCAAGGCCCUUGGCAGCUUUAAUAGCAUC [Theophylline B Same State; Euphoria Solution] | 303 nM | 198 nM | 471 nM | 263 nM | 235 nM
CCCGGUCCACGAAGGAGCGCCGUGCAGUGAUGUUGCAGUUAGAUCCAGUGAUGUUUGGGCCGGCAGGUAGGUCGCGUGGCCCGGG [Excusion Arginine B GF 24] | 199 nM | 197 nM | 250 nM | 197 nM | 188 nM
ACGUGUCACUGAAGGAGCGUCUACCGAAUACGAGUGAUGUUGGUAUACCACUUAUAUAGUGGACAGGUAGGUCGCAGUGAUACGU [Arg B Ex t4] | 987 nM | 769 nM | 938 nM | 757 nM | 837 nM
CCGCCGGUCGGAAGGAGCGCACGCCAGAGUGAUGUUCUGGCGCGGGCACUUUAUGCCCGCGUGCAGGUAGGUCGCCGAUUCUGGC [Mabema] | 464 nM | 426 nM | 445 nM | 446 nM | 417 nM
AAGGCAGUUCGAGGAUAUCACAUACACUCCUUGAAUCAAGGAGUGAUGUUCCUUGAAGUGUAUGCAUGAGAAGGCGAAUUGCCUU [FMN B SS t5] | 113 nM | 103 nM | 109 nM | 103 nM | 101 nM
AGGGUUUAACACGAUACCAGCCUGGAGGCCAGUGAUGUUGGCCGAUUUGAACAGAAUUAAGGCCCUUGGCAGCGUCUUUAAAACC [Biarat] | 143 nM | 152 nM | 167 nM | 165 nM | 153 nM
GCGUGCAAGUCAUGAUGCCCUAUCAGGACUAAGGAUAUAGCGUGACCUAGAAGGUAGCUAGUGAUGUUGGCUGACAUGCUACUGC [theeternabot_exclusion_KL_FMN_A_49] | 482 nM | 227 nM | 367 nM | 376 nM | 376 nM
GGUAGCAUGGCGGCCGCCACUAGAUCAGUGAUGUUGAUCCCGCCGUCUUACGGCGAGUCAGAGGCUAGGACCGGGCCAUGCUACC | 601 nM | 318 nM | 490 nM | 590 nM | 963 nM
AACCACUCGUUACAUCACUAUCGAGUGGAACGAGGACCGGUACGGCCGCCACUCGGUAACAAGCAGUGAUGUUGCUUGUAAGAAU [KL-SSTryp-A (BrourdMod)2 #dotplot2 strengthened] | 298 nM | 252 nM | 307 nM | 312 nM | 164 nM
GAGCCAGAAGUUGCUGCGGGUUUCAGAGAUACCAGCCGUAUUGUAGGCCCUUGGCAGCUCGAGUGAUGUUCGAGCCGCUUCUAGC [Inma] | 128 nM | 95.4 nM | 120 nM | 115 nM | 114 nM
AGAUGUCCCUGGGAUACCAGUCGGAGUCUCAGAGCUCGGAGUGAUGUUCUGGGAUGUUUCGGCCCUUGGCAGCUCUGGGACUCCC [#2 Exclusion - Theophylline B Attempt #25 (HarryS)] | 603 nM | 722 nM | 847 nM | 708 nM | 909 nM
CAGAAGCAUUCGGCCGCCACUCCAGUGAUGUUGGAGCGGGAGGGCCUUAAACCUCGAGGCUGCUGGAGGACCGGGAAUGUUGAGG [Beerso] | 166 nM | 164 nM | 168 nM | 173 nM | 269 nM
AGUGGACGUGUCCGGAGUGAUGUUCCGGAUACCAGACACGAAAGUGUCCCUUGGCAGCCGGAGUGAUGUUCCGGCGUUCACUAAA [Omei KL Theo A Exc B v1] | 270 nM | 185 nM | 243 nM | 220 nM | 257 nM
UAAUAAUAAUGAUAAUAAUAAAGUGGUGGACGAGGACCGGUACGGCCGCCACUCGAAAAUGCAGUGAUGUUGUAAUACAAAUAAU [Exclusion - Tryptophan A (Freestyle 1)] | 110 nM | 203 nM | 137 nM | 200 nM | 86.6 nM
AUUUUUUUGUCAGGAUAUUAGUGUUGGUUUGGUUUGUUAGUGAUGUUGAUAUUUGUUUUAUGUAUUUAAGAAGGGAUUUAGCGGU [wxooemullin] | 420 nM | 379 nM | 364 nM | 458 nM | 293 nM
CUGGUGCUGAUGCGGUGGCCGGUGGUCGUGCGAGGACCGGUACGGCCGCCACUCGCAUGAGUGAUGUUCAUGUGUCGUCGUCGUC [whbob_EX_Tryp_A_t1] | 212 nM | 134 nM | 181 nM | 176 nM | 217 nM

Sequence | apparent KD of K4 kissing-loop reporter (input ligand: FMN 200 uM) | apparent KD of K4 kissing-loop reporter (input ligand: arginine 13.2 mM) | apparent KD of K4 kissing-loop reporter (input ligand: none) | apparent KD of K4 kissing-loop reporter [1] | apparent KD of K4 kissing-loop reporter [2]
UGAUAGGACAGAAGGAGCGGAAGUGAUGUUUCCAAAAGGCUAAGGUGUCAAAAGACACCCUUCCAGGUAGGUCGCUGUCCUAUCU | 237 nM | 274 nM | 221 nM | 260 nM | 203 nM
AGCGGCCAGUCGGCCGCCACUCCAGGCAGUGAUGUUGCUAAGUUUCUACUAGAGUGAUGUUCUAAGAGGACCGGGACUGACGUAU [Exclusion Tryptophan B Gf 8] | 178 nM | 225 nM | 199 nM | 216 nM | 145 nM
CGGCUCACGCAAGGAUAUCGCAGUGAGUACUCUGGAAGAAUAAAGCUAGUGAUGUUAGGUUAGAAGCGAGAAGGUGCGGCCGUAU [theeternabot_sameState_KL_FMN_B_30] | 126 nM | 96.5 nM | 128 nM | 197 nM | 137 nM
ACACUAUCGUCAUAGACGGUAGUGAAAAGUGAGGAUAUGAGUGAUGUUAGAAGGCACUAAGACUGUAUCGAAUAGAUACAGUCAA [FmnA 4 #K4BetweenAptamer #OpenEnded] | 803 nM | 262 nM | 384 nM | 292 nM | 349 nM
CUUCUUCUUCCAAUCUCGGCCAACACGGGACGAGGACCGGUACGGCCGCCACUCGUGCAGUGAUGUUGCACGAUGGUGACGGAGA [Engebiisso] | 98.5 nM | 81.1 nM | 84.6 nM | 74.7 nM | 113 nM
UAUGGUCCAUCAAGAGUAGUGAUGUUAUAACGAGGACCGGUACGGCCGCCACUCGAGGCCGUAAUACUCGAUCGGAUGCUGAGUG [theeternabot_exclusion_KL_Trp_A_28] | 815 nM | 819 nM | 1180 nM | 794 nM | 816 nM
UACUAUAUUCUGUCGUUUUUAUUAGUUUGUCAGGAUAUCGUUUAUUCGAGAAGGGACACUGUCUAGUGAUGUUAGACAUUUCUUU [#04 K4 FMN A Exclusion] | 68.3 nM | 90.7 nM | 88.5 nM | 87 nM | 75.5 nM
AAAAUAAACCAGUGAUGUUGGUGUCCAGAUACCAGCGAUAAUCAUCGCCCUUGGCAGCUGCGGACGUACAAAAUAAGUACGUCCU [MatMod 12 - Jieux - Same State - Theophylline A] | 665 nM | 475 nM | 707 nM | 399 nM | 567 nM
CUGAUGCUGAUGCGGCGGCCGGUGGUCGUGCGAGGACCGGUACGGCCGCCACUCGCGCGAGUGAUGUUCGCGCGUCGUCGUCGUC [First Shot] | 120 nM | 91.4 nM | 114 nM | 76.9 nM | 117 nM
UCUGCAAAGUCGGCCGCCACUCCGGGCCCUAUAAAUGGGCGCAGUGAUGUUGCGGCUAGGCCUCUGAGGACCGGGACUUCGUAGA [Somale] | 62.8 nM | 52.1 nM | 54.7 nM | 166 nM | 107 nM
AGAGUUGACGAAAAGUCAACUCUACGAGAAGGAGCGCACGAAAGUGCAGGUAGGUCGCUCAGUCCAGUGAUGUUGGAACAUAAAA [#OpenEnded 8] | 59.7 nM | 101 nM | 68.8 nM | 84.1 nM | 59.2 nM
GUGACACGUGAUGAUACCAGUCCACGGAAGUUCCUUAGUGAUGUUAACCUUGCUUUUUCUGACCCUUGGCAGCAUUAGUUGAGAA [theeternabot_sameState_KL_Theo_B_42] | 332 nM | 166 nM | 204 nM | 304 nM | 237 nM
AUAUUAAGCGGAAGGAGCGGCUGAACCAGUGAUGUUGGUUAAUCCAAGUGAUGUUGGAAAAGCCAGGUAGGUCGCCGCUAUAUAU [Same State Arg B GF 1] | 725 nM | 424 nM | 695 nM | 569 nM | 640 nM
GGCCGGAAGGCGAGCGCUCCCACUCCGGAAGGAGCGCCCGGAAGGGCAGGUAGGUCGCCGGAGUGAUGUUCCGGUGGAGGGCUCG [#2 Exclusion - Arginine A Attempt #19 (Inspired by Omei)] | 141 nM | 120 nM | 80.4 nM | 271 nM | 70.2 nM
AACCACUCGUUACAUCACUAUCGAGUGGAACGAGGACCGGUACGGCCGCCACUCGAUUAGAUGCAGUGAUGUUGCAUCUUAGAAU [KL-SSTryp-A (BrourdMod)3 #dotplot2 strengthened] | 195 nM | 163 nM | 165 nM | 176 nM | 133 nM
UGGACAUGACUCGAUAAGAGUCAAUGGGAUACCAGUGACGAAAGUCACCCUUGGCAGCUCAACUGCCAGUGAUGUUGGUAGUCCU [Astros-Elimod] | 205 nM | 119 nM | 207 nM | 157 nM | 125 nM
UAGUGUCGCGCAGGAUAUACUGAUUGGAGUGAUGUUCCAAACAUGAACGUGAGACUUUUACAAGAAGUAGAAGGGCGUGAGACAU [Exclusion FMN B GF 21] | 276 nM | 320 nM | 405 nM | 393 nM | 404 nM
ACCUACGAUCACAAAAGUGAUUGUAGGAUCUAGGAUAUGCUGAAGAGCAGAAGGAGAGUGAUGUUCUCAACUCACGAAAGUGAGA [whbob_Ex_FMNA__2th188] | 382 nM | 222 nM | 198 nM | 258 nM | 175 nM
GUGUAGAAGUGAGGAUAUCGAUUUAAGAAUAAGCAGUGAUGUUGCAAGCAGGAGGAAUAAGAUUAACGAGAAGGCGUGGAUAUAG [FMN B Exclusion; Euphoria Solution] | 104 nM | 110 nM | 125 nM | 141 nM | 99.1 nM
AGUAUUGAGUCGGCCGCCACUGGUUUAAUGAGUGUCAAUUCUGGAUCAAAGUGAUGUUUUGGAGCUAGGACCGGGACCAUUGUUA [#07 K4 Tryptophan B Exclusion] | 446 nM | 360 nM | 433 nM | 360 nM | 479 nM
GGAUAGGACAAAGGAUAUGGUAGUGAUGUUACCAAACUGGUUAAACAUGUCAGAAAACUGGCAUGACCAGAAGGUUGUCCUAUCG [FmnBX 27 A11+U75] | 86.4 nM | 62.8 nM | 66.3 nM | 61.1 nM | 66.9 nM
